B1: SAT2 (parent)
chain: GYGIYYFIYSTWKGRTIYLEDIYV
B2: TRIM55 (parent)
chain: YKSFSKEQQTMDNLEKQLICPICL

Variants of: B1
Assay: protein stability index of a GFP-peptide fusion (GPS, HEK-293T) (PSI 1-6); higher = more stable
Conditions: c terminus: a fixed tail appended
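Note: lentivirally expressed fusions sorted by FACS into six bins by GFP to DsRed ratio, PSI derived from sequencing read proportions per bin multiplied by bin number.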

Protein stability index of substitutions, site by site:
I4: A 3.19; M 3.54; K 2.7; N 3.27; W 2.71; V 1.71; H 2.53; D 2.92; C 3.26
V24: I 1.48; S 2.83; Y 2.53; E 2.6; K 3.94; C 3.63; M 1.63; R 2.39; F 2.91; P 2.3
D21: M 3.04; P 2.44; E 2.34; I 3.08; T 1.75; K 4.17; N 2.74; L 2.9; H 2.67; C 2.34; R 1.47
S10: E 3.09; Q 2.29; Y 2.76; N 2.55; M 3.91; P 3.17; W 2.26; C 2.53
K13: P 1.99; H 2.87; G 2.94; E 3.58; I 2.8; Y 1.48; T 2.87; S 2.39; R 3.04
W12: N 3.5; S 4.37; C 2.1; P 2.36; K 2.65; D 2.25; T 2.5; F 2.8; M 4.12; V 3.31
I22: C 2.41; E 2.92; Y 2.09; S 3.3; Q 1.86; H 2.55
F7: D 3.03; A 2; N 3.37; K 3.88; S 2.8; L 2.92; V 3.39; P 3.4; G 3.36
Y5: D 2.62; K 2.61; C 2.85; I 2.59; R 2.39; T 2.53; L 2.15; H 2.42; G 3.41; W 2.09
Y18: C 1.89; F 3.01; T 2.92; S 2.33; H 2.59; K 1.88; V 3.04; M 2.33; I 1.92; A 1.71
G1: S 2.41; I 1.2; H 2.72; F 2.13; Y 3.1; L 3.6; M 3.54; E 2.96; R 2.21
E20: T 2.4; P 2.91; L 2.1; C 3.04; H 2.91; N 4.06; V 3.13; M 4.05; G 2.26; F 2.84; W 2.35; R 3.97; S 3.32
R15: S 2.1; F 4.58; T 3.03; M 3.05; P 2.17; W 3.58; A 4.7; L 3.07; D 2.9; C 3.31; H 2.96; N 2.37
T16: M 3.12; V 3.24; G 3.31; L 3.32; S 3.8; W 2.95; C 2.83; A 3.27; E 2.53; F 3.53; R 1.69; N 1.86
Y2: F 1.06; C 2.61; N 3.27; M 2.92; P 1.91; W 2.38; D 2.06; S 3.01; V 2.26; H 3.91; R 2.58
L19: I 4.11; G 3.7; H 2.98; Y 4; F 2.37; S 3.57
I8: A 1.76; R 3.57; H 2.93; V 2.02; T 4.7; Y 3.28; C 1.7; F 3.4; S 3.1; Q 1.27; L 2.2; E 3.68
I17: Y 2.1; M 1.75; K 3.66; A 3.11; D 3.35; G 2.82; R 1.72; E 2.77; W 2.17; V 2.27; F 3.52
Y23: P 2.43; F 2.37; M 2.71; W 2.35; H 3.07; N 3.18; L 1.08; C 2.65
G14: Y 3.58; T 2.34; P 2.33; L 2.47; R 3.28; M 1.94; I 2.04; C 5.03; N 2.71; S 2.5; V 5.04
Y6: C 2.94; A 2.88; F 3.09; E 2.64; L 1.83; R 3.12
T11: V 3.88; W 3.78; C 4.22; H 3.48; M 3.99; A 2.97; S 2.44; Y 2.83; Q 2.72; I 2.78; F 2.43
G3: C 2.12; K 2.62; D 2.8; Y 2.19; R 2.96; F 4.2; P 2.7; S 3.29; I 1.59
Y9: G 2.77; P 2.71; V 1.67; T 2.78; I 1.62; M 3.46; L 2.57; R 3.86; S 1.59; D 3.06

Variants of: B2
Assay: as above
Conditions: c terminus: a fixed tail appended

Protein stability index: each site, then its substitutions
S3: T 2.69; M 1.85; D 2.47; H 2.45; L 1.69; R 2.43; A 2.02; N 2.32; C 2; V 2.07; E 2.25; Y 1.44; F 1.65; G 1.69; P 2.05; W 2.18; K 2.44; I 1.94; Q 2.2
F4: M 2; G 2.49; H 2.8; P 2.9; V 2.24; S 2.64; W 1.74; K 2.63; R 2.66; A 2.74; I 2.23; D 2.43; E 2.49; T 2.44; N 2.45; Q 2.37; Y 2.34; L 2.27; C 2.59
Y1: E 2.48; I 1.99; A 2.5; K 2.68; W 2.17; T 2.62; P 2.7; R 2.83; M 2.5; S 3.02; C 2.7; Q 2.15; V 1.97; L 2.94; F 2.02; H 3.12; N 2.48; G 2.35; D 3.46
K6: G 2.15; H 1.85; F 1.3; C 2.41; A 2.91; E 2.04
K2: I 1.56; S 2.38; T 1.83; L 2.52; Y 1.95; N 2.12; R 1.73; M 2.1; D 2.36; V 2.05; H 1.29; W 1.96; E 1.73; F 2.09; C 1.93; P 2.5; Q 1.59; G 2.92; A 2.02
S5: M 2.11; G 2.13; R 2.11; Q 2.19; F 1.71; T 1.92; H 1.81; D 2.18; L 1.34; A 1.89; E 2.26; I 1.96; W 1.37; C 2.73; N 2.4; K 2.48; Y 2.26; P 2.07; V 1.99

— the supplement of paper PMC10567573
